# Experimental data from patent publication US20260085129A1 (ECO ANIMAL HEALTH, published 2026).
# T1: porcine CD163, membrane-bound form on porcine pulmonary alveolar macrophage (pPAM) WT cells (porcine, UniProt Q2VL90 47-1115)
# T1 construct: Native CD163 on primary cells; also called membrane CD163; cell-surface CD163
# T1 sequence: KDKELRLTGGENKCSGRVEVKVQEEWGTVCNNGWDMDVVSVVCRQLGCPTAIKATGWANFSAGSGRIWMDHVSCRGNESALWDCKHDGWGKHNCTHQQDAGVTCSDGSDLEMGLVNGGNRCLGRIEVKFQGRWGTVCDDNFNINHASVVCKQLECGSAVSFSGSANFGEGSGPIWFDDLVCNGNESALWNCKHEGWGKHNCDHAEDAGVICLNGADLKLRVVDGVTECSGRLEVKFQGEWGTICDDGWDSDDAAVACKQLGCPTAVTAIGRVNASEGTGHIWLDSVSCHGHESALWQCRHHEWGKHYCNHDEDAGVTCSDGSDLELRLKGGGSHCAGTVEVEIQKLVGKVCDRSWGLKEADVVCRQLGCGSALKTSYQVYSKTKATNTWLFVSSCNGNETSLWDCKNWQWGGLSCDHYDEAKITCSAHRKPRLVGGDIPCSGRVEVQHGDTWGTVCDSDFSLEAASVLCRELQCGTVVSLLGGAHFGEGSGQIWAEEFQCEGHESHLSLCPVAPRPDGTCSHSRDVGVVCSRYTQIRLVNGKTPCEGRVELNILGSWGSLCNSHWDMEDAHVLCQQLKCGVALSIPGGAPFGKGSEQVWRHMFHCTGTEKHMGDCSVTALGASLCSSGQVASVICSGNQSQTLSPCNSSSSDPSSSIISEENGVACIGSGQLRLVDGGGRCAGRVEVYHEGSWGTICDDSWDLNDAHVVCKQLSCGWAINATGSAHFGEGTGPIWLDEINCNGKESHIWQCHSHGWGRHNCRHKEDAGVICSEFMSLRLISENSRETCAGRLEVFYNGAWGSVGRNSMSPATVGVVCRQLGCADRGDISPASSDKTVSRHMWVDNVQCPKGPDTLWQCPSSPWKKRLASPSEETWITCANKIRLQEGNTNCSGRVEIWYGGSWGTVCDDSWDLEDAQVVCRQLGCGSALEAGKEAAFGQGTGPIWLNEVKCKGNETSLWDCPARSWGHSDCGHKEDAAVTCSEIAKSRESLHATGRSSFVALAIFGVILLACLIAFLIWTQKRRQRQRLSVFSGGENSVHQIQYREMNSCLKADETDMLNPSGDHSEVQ
# B1: 17B11 + 03D03 2(G4S) biparatopic VHH construct (bispecific antibody)
# chain: QVQLVESGGGLVQAGGSLRLSCAASGRTFSSYAMGWFRQTPGKDREFVARIGWTGGTTIYADSVKGRFTISRDNAKNTVYLQMNSLKPEDTAVYYCAADQAGWRTAGVRNTYEYDYWGQGTQVTVSSGGGGSGGGGSQLQLVESGGGLVQPGGSLRLSCAASGFTLDDYTIGWFRQAPGKEREGVSCINSITSNTYYADSVKGRFTISRDNAKNTVYLQMNSLTAEDTAIYYCAADSGLFSGSSCLKYRAMRFGSWGQGTQVTVSS
# notes: Biparatopic; not shown: FLAG and His tags
# B2: 03E11 + 03D03 5(G4S) biparatopic VHH construct (bispecific antibody)
# chain: QVQLQESGGGLVQVGSSLRLSCVTSGRTPSRYVMGWFRQAPGQEREFVAAISWSGRAPYADSVKGRFTISRDNAKNTVYLQMNSLKPEDTGVYYCAGGEGAIKWTTLDAYDYWGQGTQVTVSSGGGGSGGGGSGGGGSGGGGSGGGGSQLQLVESGGGLVQPGGSLRLSCAASGFTLDDYTIGWFRQAPGKEREGVSCINSITSNTYYADSVKGRFTISRDNAKNTVYLQMNSLTAEDTAIYYCAADSGLFSGSSCLKYRAMRFGSWGQGTQVTVSS
# notes: as for B1
# B3: 17B11 + 03D03 5(G4S) biparatopic VHH construct (bispecific antibody)
# chain: QVQLVESGGGLVQAGGSLRLSCAASGRTFSSYAMGWFRQTPGKDREFVARIGWTGGTTIYADSVKGRFTISRDNAKNTVYLQMNSLKPEDTAVYYCAADQAGWRTAGVRNTYEYDYWGQGTQVTVSSGGGGSGGGGSGGGGSGGGGSGGGGSQLQLVESGGGLVQPGGSLRLSCAASGFTLDDYTIGWFRQAPGKEREGVSCINSITSNTYYADSVKGRFTISRDNAKNTVYLQMNSLTAEDTAIYYCAADSGLFSGSSCLKYRAMRFGSWGQGTQVTVSS
# notes: as for B1
# B4: 03E11 + 17B11 5(G4S) biparatopic VHH construct (bispecific antibody)
# chain: QVQLQESGGGLVQVGSSLRLSCVTSGRTPSRYVMGWFRQAPGQEREFVAAISWSGRAPYADSVKGRFTISRDNAKNTVYLQMNSLKPEDTGVYYCAGGEGAIKWTTLDAYDYWGQGTQVTVSSGGGGSGGGGSGGGGSGGGGSGGGGSQVQLVESGGGLVQAGGSLRLSCAASGRTFSSYAMGWFRQTPGKDREFVARIGWTGGTTIYADSVKGRFTISRDNAKNTVYLQMNSLKPEDTAVYYCAADQAGWRTAGVRNTYEYDYWGQGTQVTVSS
# notes: as for B1
# B5: 03E11 + 17B11 2(G4S) biparatopic VHH construct (bispecific antibody)
# chain: QVQLQESGGGLVQVGSSLRLSCVTSGRTPSRYVMGWFRQAPGQEREFVAAISWSGRAPYADSVKGRFTISRDNAKNTVYLQMNSLKPEDTGVYYCAGGEGAIKWTTLDAYDYWGQGTQVTVSSGGGGSGGGGSQVQLVESGGGLVQAGGSLRLSCAASGRTFSSYAMGWFRQTPGKDREFVARIGWTGGTTIYADSVKGRFTISRDNAKNTVYLQMNSLKPEDTAVYYCAADQAGWRTAGVRNTYEYDYWGQGTQVTVSS
# notes: as for B1
# B6: 03E11 + 03D03 2(G4S) biparatopic VHH construct (bispecific antibody)
# chain: QVQLQESGGGLVQVGSSLRLSCVTSGRTPSRYVMGWFRQAPGQEREFVAAISWSGRAPYADSVKGRFTISRDNAKNTVYLQMNSLKPEDTGVYYCAGGEGAIKWTTLDAYDYWGQGTQVTVSSGGGGSGGGGSQLQLVESGGGLVQPGGSLRLSCAASGFTLDDYTIGWFRQAPGKEREGVSCINSITSNTYYADSVKGRFTISRDNAKNTVYLQMNSLTAEDTAIYYCAADSGLFSGSSCLKYRAMRFGSWGQGTQVTVSS
# notes: Biparatopic: two anti-porcine CD163 VHHs in one chain; also called 19-17; 03D03+03E11; not shown: FLAG and His tags
# B7: 03E11 + 17B11 + 03D03 2(G4S) triparatopic VHH construct (bispecific antibody)
# chain: QVQLQESGGGLVQVGSSLRLSCVTSGRTPSRYVMGWFRQAPGQEREFVAAISWSGRAPYADSVKGRFTISRDNAKNTVYLQMNSLKPEDTGVYYCAGGEGAIKWTTLDAYDYWGQGTQVTVSSGGGGSGGGGSQVQLVESGGGLVQAGGSLRLSCAASGRTFSSYAMGWFRQTPGKDREFVARIGWTGGTTIYADSVKGRFTISRDNAKNTVYLQMNSLKPEDTAVYYCAADQAGWRTAGVRNTYEYDYWGQGTQVTVSSGGGGSGGGGSQLQLVESGGGLVQPGGSLRLSCAASGFTLDDYTIGWFRQAPGKEREGVSCINSITSNTYYADSVKGRFTISRDNAKNTVYLQMNSLTAEDTAIYYCAADSGLFSGSSCLKYRAMRFGSWGQGTQVTVSS
# notes: Triparatopic; not shown: FLAG and His tags
# Biological target: T1, porcine CD163, membrane-bound form on …
# Test: dose-response FACS on pPAM WT cells, anti-FLAG-biotin and streptavidin R-PE detection
# Description: Biparatopic and triparatopic antibody constructs in PBS (pH7.4) were diluted in a 3-fold serial dilutions from 150 nM down to 0.023 nM in FACS buffer (0.5% FBS, 0.5 mM EDTA in 1×PBS pH7.4). Biparatopic and triparatopic candidates were incubated with anti-FLAG-Biotin (Sigma, Cat. nr. F9291), for 30 min on ice with shaking. This mixture was added to pPAM WT cells and incubated for 60 min on ice with gentle shaking. Cells were washed 3×with 150 μl/well of FACS buffer and incubated with 50 μl/well of the secondary detection reagent Streptavidin R-P.E. conjugate antibody (Invitrogen, Cat. nr. SA10044) for 30 min on ice with shaking and protected from light. Cells were then washed 3× with 150 μl/well of FACS Buffer and resuspended in 50 μl/well of FACS buffer to be measured on a FACS machine (Attune™ N×T), and a total of 10000 cells were acquired per sample.
row,Binder,EC50 [nM]
1,B1,6.6
2,B2,6.5
3,B3,6.6
4,B4,8.4
5,B5,6.8
6,B6,8.4
7,B7,18.2
